Patent CN107383198A (ZONHON BIOPHARMA INST INC, dated 2017)

B1: 单链抗体C12 (anti-human cystatin C scFv C12) (scFv)
scFv: QVQLQQPGSELVRPGTSVKLSCRASGYTFTSYWMHWVKQRHGQGLEWLGNVDPGSGTTNYEENFKTKGTLTVDTSSSTVYMHLSSLTSEDSAVYYCTAGFDYWGQGTTLTVSAGGGGSGGGGSGGGGSDIQMNQSPSSLSASLGDTITITCHASQNINVWLGWFQQKPENIPKLLIYKASTLHTGVPSRFSGSGSGTVFTLTISSPQPEDIATYYCQQGQTYPLTFGAGTKLEIK
notes: Used HRP-labelled in the Western blot and colloidal-gold-labelled in the test card; also called C12-scFv-(HIS)6; C12-HRP
B2: 抗体M12 (antibody secreted by hybridoma cell line M12) (antibody, V domains shown)
VH: QVQLQQPGSELVRPGTSVKLSCRASGYTFTSYWMHWVKQRHGQGLEWLGNVDPGSGTTNYEENFKTKGTLTVDTSSSTVYMHLSSLTSEDSAVYYCTAGFDYWGQGTTLTVSA
VL: DIQMNQSPSSLSASLGDTITITCHASQNINVWLGWFQQKPENIPKLLIYKASTLHTGVPSRFSGSGSGTVFTLTISSPQPEDIATYYCQQGQTYPLTFGAGTKLEIK
notes: Mouse monoclonal antibody tested as hybridoma culture supernatant and detected with HRP goat anti-mouse IgG

Tests used:
[1] = target: T1, 提取于人血浆的胱抑素C (native human cystatin C, HyTest) (human, UniProt P01034 27-146); test: Western blot of native CysC (HyTest) with HRP-labelled scFv
T1 construct: mature; also called CysC; 天然CysC蛋白
T1 sequence (looked up): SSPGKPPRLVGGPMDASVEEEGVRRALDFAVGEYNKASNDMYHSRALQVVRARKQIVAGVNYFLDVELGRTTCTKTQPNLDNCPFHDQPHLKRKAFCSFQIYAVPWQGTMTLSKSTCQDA

[2] = target: T1, 提取于人血浆的胱抑素C (native human cystatin C, …); test: indirect ELISA, CysC (HyTest) coated at 1 μg/mL, hybridoma supernatant, HRP goat anti-mouse IgG

Binder | binding result [1] | binding result [2]
B1 | binds | 
B2 |  | binds
